These results are taken from patent US20180155451A1 (published 2018).

To fix the notation:
B1: GpH7-A5/GpH7-B3 variant K334_01G/GpL16-k0 (antibody, human IgG1, kappa)
heavy 1: not shown
heavy 2: not shown
light: DIVMTQSPLSLPVTPGEPASISCQASESLVHSNRNTYLHWYLQKPGQSPQLLIYKVSNRFSGVPDRFSGSGSGTDFTLKISRVEAEDVGVYYCSQNTHVPPTFGQGTKVEIERTVAAPSVFIFPPSDEQLKSGTASVVCLLNNFYPREAKVQWKVDNALQSGNSQESVTEQDSKDSTYSLSSTLTLSKADYEKHKVYACEVTHQGLSSPVTKSFNRGEC
notes: heterodimerized IgG1, mutation in one H chain only; also called He Ab
B2: GpH7-A5/GpH7-B3 variant A330_08L/GpL16-k0 (antibody, human IgG1, kappa)
heavy 1: not shown
heavy 2: not shown
light: DIVMTQSPLSLPVTPGEPASISCQASESLVHSNRNTYLHWYLQKPGQSPQLLIYKVSNRFSGVPDRFSGSGSGTDFTLKISRVEAEDVGVYYCSQNTHVPPTFGQGTKVEIERTVAAPSVFIFPPSDEQLKSGTASVVCLLNNFYPREAKVQWKVDNALQSGNSQESVTEQDSKDSTYSLSSTLTLSKADYEKHKVYACEVTHQGLSSPVTKSFNRGEC
notes: as for B1
B3: GpH7-A5/GpH7-B3 variant H268_13S/GpL16-k0 (antibody, human IgG1, kappa)
heavy 1: not shown
heavy 2: not shown
light: DIVMTQSPLSLPVTPGEPASISCQASESLVHSNRNTYLHWYLQKPGQSPQLLIYKVSNRFSGVPDRFSGSGSGTDFTLKISRVEAEDVGVYYCSQNTHVPPTFGQGTKVEIERTVAAPSVFIFPPSDEQLKSGTASVVCLLNNFYPREAKVQWKVDNALQSGNSQESVTEQDSKDSTYSLSSTLTLSKADYEKHKVYACEVTHQGLSSPVTKSFNRGEC
notes: as for B1
B4: GpH7-A5/GpH7-B3 variant I332_13S/GpL16-k0 (antibody, human IgG1, kappa)
heavy 1: not shown
heavy 2: not shown
light: DIVMTQSPLSLPVTPGEPASISCQASESLVHSNRNTYLHWYLQKPGQSPQLLIYKVSNRFSGVPDRFSGSGSGTDFTLKISRVEAEDVGVYYCSQNTHVPPTFGQGTKVEIERTVAAPSVFIFPPSDEQLKSGTASVVCLLNNFYPREAKVQWKVDNALQSGNSQESVTEQDSKDSTYSLSSTLTLSKADYEKHKVYACEVTHQGLSSPVTKSFNRGEC
notes: as for B1
B5: GpH7-A5/GpH7-B3 variant A330_04F/GpL16-k0 (antibody, human IgG1, kappa)
heavy 1: not shown
heavy 2: not shown
light: DIVMTQSPLSLPVTPGEPASISCQASESLVHSNRNTYLHWYLQKPGQSPQLLIYKVSNRFSGVPDRFSGSGSGTDFTLKISRVEAEDVGVYYCSQNTHVPPTFGQGTKVEIERTVAAPSVFIFPPSDEQLKSGTASVVCLLNNFYPREAKVQWKVDNALQSGNSQESVTEQDSKDSTYSLSSTLTLSKADYEKHKVYACEVTHQGLSSPVTKSFNRGEC
notes: as for B1
B6: GpH7-A5/GpH7-B3 variant I332_09D/GpL16-k0 (antibody, human IgG1, kappa)
heavy 1: not shown
heavy 2: not shown
light: DIVMTQSPLSLPVTPGEPASISCQASESLVHSNRNTYLHWYLQKPGQSPQLLIYKVSNRFSGVPDRFSGSGSGTDFTLKISRVEAEDVGVYYCSQNTHVPPTFGQGTKVEIERTVAAPSVFIFPPSDEQLKSGTASVVCLLNNFYPREAKVQWKVDNALQSGNSQESVTEQDSKDSTYSLSSTLTLSKADYEKHKVYACEVTHQGLSSPVTKSFNRGEC
notes: as for B1
B7: GpH7-A5/GpH7-B3 variant A330_20W/GpL16-k0 (antibody, human IgG1, kappa)
heavy 1: not shown
heavy 2: not shown
light: DIVMTQSPLSLPVTPGEPASISCQASESLVHSNRNTYLHWYLQKPGQSPQLLIYKVSNRFSGVPDRFSGSGSGTDFTLKISRVEAEDVGVYYCSQNTHVPPTFGQGTKVEIERTVAAPSVFIFPPSDEQLKSGTASVVCLLNNFYPREAKVQWKVDNALQSGNSQESVTEQDSKDSTYSLSSTLTLSKADYEKHKVYACEVTHQGLSSPVTKSFNRGEC
notes: as for B1
B8: GpH7-A5/GpH7-B3 variant I332_14T/GpL16-k0 (antibody, human IgG1, kappa)
heavy 1: not shown
heavy 2: not shown
light: DIVMTQSPLSLPVTPGEPASISCQASESLVHSNRNTYLHWYLQKPGQSPQLLIYKVSNRFSGVPDRFSGSGSGTDFTLKISRVEAEDVGVYYCSQNTHVPPTFGQGTKVEIERTVAAPSVFIFPPSDEQLKSGTASVVCLLNNFYPREAKVQWKVDNALQSGNSQESVTEQDSKDSTYSLSSTLTLSKADYEKHKVYACEVTHQGLSSPVTKSFNRGEC
notes: as for B1
B9: GpH7-A5/GpH7-B3 variant I332_10E/GpL16-k0 (antibody, human IgG1, kappa)
heavy 1: not shown
heavy 2: not shown
light: DIVMTQSPLSLPVTPGEPASISCQASESLVHSNRNTYLHWYLQKPGQSPQLLIYKVSNRFSGVPDRFSGSGSGTDFTLKISRVEAEDVGVYYCSQNTHVPPTFGQGTKVEIERTVAAPSVFIFPPSDEQLKSGTASVVCLLNNFYPREAKVQWKVDNALQSGNSQESVTEQDSKDSTYSLSSTLTLSKADYEKHKVYACEVTHQGLSSPVTKSFNRGEC
notes: as for B1
B10: GpH7-A5/GpH7-B3 variant H268_09D/GpL16-k0 (antibody, human IgG1, kappa)
heavy 1: not shown
heavy 2: not shown
light: DIVMTQSPLSLPVTPGEPASISCQASESLVHSNRNTYLHWYLQKPGQSPQLLIYKVSNRFSGVPDRFSGSGSGTDFTLKISRVEAEDVGVYYCSQNTHVPPTFGQGTKVEIERTVAAPSVFIFPPSDEQLKSGTASVVCLLNNFYPREAKVQWKVDNALQSGNSQESVTEQDSKDSTYSLSSTLTLSKADYEKHKVYACEVTHQGLSSPVTKSFNRGEC
notes: as for B1
B11: GpH7-A5/GpH7-B3 variant H268_10E/GpL16-k0 (antibody, human IgG1, kappa)
heavy 1: not shown
heavy 2: not shown
light: DIVMTQSPLSLPVTPGEPASISCQASESLVHSNRNTYLHWYLQKPGQSPQLLIYKVSNRFSGVPDRFSGSGSGTDFTLKISRVEAEDVGVYYCSQNTHVPPTFGQGTKVEIERTVAAPSVFIFPPSDEQLKSGTASVVCLLNNFYPREAKVQWKVDNALQSGNSQESVTEQDSKDSTYSLSSTLTLSKADYEKHKVYACEVTHQGLSSPVTKSFNRGEC
notes: as for B1
B12: GpH7-A5/GpH7-B3 variant I332_01G/GpL16-k0 (antibody, human IgG1, kappa)
heavy 1: not shown
heavy 2: not shown
light: DIVMTQSPLSLPVTPGEPASISCQASESLVHSNRNTYLHWYLQKPGQSPQLLIYKVSNRFSGVPDRFSGSGSGTDFTLKISRVEAEDVGVYYCSQNTHVPPTFGQGTKVEIERTVAAPSVFIFPPSDEQLKSGTASVVCLLNNFYPREAKVQWKVDNALQSGNSQESVTEQDSKDSTYSLSSTLTLSKADYEKHKVYACEVTHQGLSSPVTKSFNRGEC
notes: as for B1
B13: GpH7-A5/GpH7-B3 variant I332_02A/GpL16-k0 (antibody, human IgG1, kappa)
heavy 1: not shown
heavy 2: not shown
light: DIVMTQSPLSLPVTPGEPASISCQASESLVHSNRNTYLHWYLQKPGQSPQLLIYKVSNRFSGVPDRFSGSGSGTDFTLKISRVEAEDVGVYYCSQNTHVPPTFGQGTKVEIERTVAAPSVFIFPPSDEQLKSGTASVVCLLNNFYPREAKVQWKVDNALQSGNSQESVTEQDSKDSTYSLSSTLTLSKADYEKHKVYACEVTHQGLSSPVTKSFNRGEC
notes: as for B1
B14: GpH7-A5/GpH7-B3 variant E333_16H/GpL16-k0 (antibody, human IgG1, kappa)
heavy 1: not shown
heavy 2: not shown
light: DIVMTQSPLSLPVTPGEPASISCQASESLVHSNRNTYLHWYLQKPGQSPQLLIYKVSNRFSGVPDRFSGSGSGTDFTLKISRVEAEDVGVYYCSQNTHVPPTFGQGTKVEIERTVAAPSVFIFPPSDEQLKSGTASVVCLLNNFYPREAKVQWKVDNALQSGNSQESVTEQDSKDSTYSLSSTLTLSKADYEKHKVYACEVTHQGLSSPVTKSFNRGEC
notes: as for B1
B15: GpH7-B3 variant S267_09D/GpL16-k0 (antibody, human IgG1, kappa)
heavy: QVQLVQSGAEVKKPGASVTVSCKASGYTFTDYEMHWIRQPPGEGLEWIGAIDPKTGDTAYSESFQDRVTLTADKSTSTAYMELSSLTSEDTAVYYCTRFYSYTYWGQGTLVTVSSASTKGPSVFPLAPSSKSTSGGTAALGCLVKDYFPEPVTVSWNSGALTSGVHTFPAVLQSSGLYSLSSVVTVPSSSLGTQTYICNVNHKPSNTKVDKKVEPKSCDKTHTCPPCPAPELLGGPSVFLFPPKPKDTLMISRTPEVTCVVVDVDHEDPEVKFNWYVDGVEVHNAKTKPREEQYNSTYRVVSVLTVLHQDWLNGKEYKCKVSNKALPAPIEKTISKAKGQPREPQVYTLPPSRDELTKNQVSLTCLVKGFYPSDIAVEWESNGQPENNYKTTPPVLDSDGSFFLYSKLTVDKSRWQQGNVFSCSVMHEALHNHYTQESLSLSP
light: DIVMTQSPLSLPVTPGEPASISCQASESLVHSNRNTYLHWYLQKPGQSPQLLIYKVSNRFSGVPDRFSGSGSGTDFTLKISRVEAEDVGVYYCSQNTHVPPTFGQGTKVEIERTVAAPSVFIFPPSDEQLKSGTASVVCLLNNFYPREAKVQWKVDNALQSGNSQESVTEQDSKDSTYSLSSTLTLSKADYEKHKVYACEVTHQGLSSPVTKSFNRGEC
notes: homodimerized IgG1, mutation in both H chains; also called Ho Ab
B16: GpH7-B3 variant S337_09D/GpL16-k0 (antibody, human IgG1, kappa)
heavy: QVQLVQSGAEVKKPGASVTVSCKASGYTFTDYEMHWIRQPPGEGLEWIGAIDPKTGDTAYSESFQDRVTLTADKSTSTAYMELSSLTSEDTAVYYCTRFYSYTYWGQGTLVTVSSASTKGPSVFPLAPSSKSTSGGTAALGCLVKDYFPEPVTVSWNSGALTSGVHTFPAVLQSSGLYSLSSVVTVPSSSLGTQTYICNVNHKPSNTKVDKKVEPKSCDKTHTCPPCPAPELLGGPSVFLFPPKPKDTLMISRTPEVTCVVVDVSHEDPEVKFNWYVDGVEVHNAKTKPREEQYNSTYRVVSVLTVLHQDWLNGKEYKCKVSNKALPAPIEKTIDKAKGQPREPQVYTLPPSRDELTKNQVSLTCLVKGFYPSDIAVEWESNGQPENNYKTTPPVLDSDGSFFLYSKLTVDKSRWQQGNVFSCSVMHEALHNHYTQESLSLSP
light: DIVMTQSPLSLPVTPGEPASISCQASESLVHSNRNTYLHWYLQKPGQSPQLLIYKVSNRFSGVPDRFSGSGSGTDFTLKISRVEAEDVGVYYCSQNTHVPPTFGQGTKVEIERTVAAPSVFIFPPSDEQLKSGTASVVCLLNNFYPREAKVQWKVDNALQSGNSQESVTEQDSKDSTYSLSSTLTLSKADYEKHKVYACEVTHQGLSSPVTKSFNRGEC
notes: as for B15
B17: GpH7-B3 variant S298_14T/GpL16-k0 (antibody, human IgG1, kappa)
heavy: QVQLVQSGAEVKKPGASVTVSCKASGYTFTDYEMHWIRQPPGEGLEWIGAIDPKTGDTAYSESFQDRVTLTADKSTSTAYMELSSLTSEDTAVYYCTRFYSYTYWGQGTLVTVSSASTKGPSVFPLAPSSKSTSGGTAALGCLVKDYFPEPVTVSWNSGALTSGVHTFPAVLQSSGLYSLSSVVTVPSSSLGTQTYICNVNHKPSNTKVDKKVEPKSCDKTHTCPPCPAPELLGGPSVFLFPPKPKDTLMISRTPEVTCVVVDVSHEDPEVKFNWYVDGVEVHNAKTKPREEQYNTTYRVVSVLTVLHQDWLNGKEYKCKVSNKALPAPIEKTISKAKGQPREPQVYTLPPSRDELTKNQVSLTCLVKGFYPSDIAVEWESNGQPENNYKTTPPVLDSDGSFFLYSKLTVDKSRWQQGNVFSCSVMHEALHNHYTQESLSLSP
light: DIVMTQSPLSLPVTPGEPASISCQASESLVHSNRNTYLHWYLQKPGQSPQLLIYKVSNRFSGVPDRFSGSGSGTDFTLKISRVEAEDVGVYYCSQNTHVPPTFGQGTKVEIERTVAAPSVFIFPPSDEQLKSGTASVVCLLNNFYPREAKVQWKVDNALQSGNSQESVTEQDSKDSTYSLSSTLTLSKADYEKHKVYACEVTHQGLSSPVTKSFNRGEC
notes: as for B15
B18: GpH7-B3 variant S337_18N/GpL16-k0 (antibody, human IgG1, kappa)
heavy: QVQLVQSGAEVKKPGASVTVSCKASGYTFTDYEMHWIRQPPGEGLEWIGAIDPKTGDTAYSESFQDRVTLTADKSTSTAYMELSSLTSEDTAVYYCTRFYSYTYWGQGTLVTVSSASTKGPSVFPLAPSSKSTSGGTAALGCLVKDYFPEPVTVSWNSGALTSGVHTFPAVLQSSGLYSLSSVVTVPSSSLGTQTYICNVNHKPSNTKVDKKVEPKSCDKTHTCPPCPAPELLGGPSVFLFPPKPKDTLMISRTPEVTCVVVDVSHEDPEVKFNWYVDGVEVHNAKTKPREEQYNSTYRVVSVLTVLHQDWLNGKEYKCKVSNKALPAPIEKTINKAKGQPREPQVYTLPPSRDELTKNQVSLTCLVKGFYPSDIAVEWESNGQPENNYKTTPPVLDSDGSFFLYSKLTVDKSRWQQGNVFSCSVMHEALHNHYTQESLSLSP
light: DIVMTQSPLSLPVTPGEPASISCQASESLVHSNRNTYLHWYLQKPGQSPQLLIYKVSNRFSGVPDRFSGSGSGTDFTLKISRVEAEDVGVYYCSQNTHVPPTFGQGTKVEIERTVAAPSVFIFPPSDEQLKSGTASVVCLLNNFYPREAKVQWKVDNALQSGNSQESVTEQDSKDSTYSLSSTLTLSKADYEKHKVYACEVTHQGLSSPVTKSFNRGEC
notes: as for B15
B19: GpH7-B3 variant S337_10E/GpL16-k0 (antibody, human IgG1, kappa)
heavy: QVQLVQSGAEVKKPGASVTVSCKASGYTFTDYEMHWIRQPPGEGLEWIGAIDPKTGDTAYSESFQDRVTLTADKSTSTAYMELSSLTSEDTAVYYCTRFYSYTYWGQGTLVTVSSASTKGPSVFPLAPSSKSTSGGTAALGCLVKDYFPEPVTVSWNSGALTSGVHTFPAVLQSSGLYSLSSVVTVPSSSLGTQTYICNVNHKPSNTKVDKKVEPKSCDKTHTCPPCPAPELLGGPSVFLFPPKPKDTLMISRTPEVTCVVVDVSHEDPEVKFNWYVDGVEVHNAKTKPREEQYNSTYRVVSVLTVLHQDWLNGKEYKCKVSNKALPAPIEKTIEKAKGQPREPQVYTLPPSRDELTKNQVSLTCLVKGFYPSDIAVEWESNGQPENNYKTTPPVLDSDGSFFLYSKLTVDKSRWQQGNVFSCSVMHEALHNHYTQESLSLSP
light: DIVMTQSPLSLPVTPGEPASISCQASESLVHSNRNTYLHWYLQKPGQSPQLLIYKVSNRFSGVPDRFSGSGSGTDFTLKISRVEAEDVGVYYCSQNTHVPPTFGQGTKVEIERTVAAPSVFIFPPSDEQLKSGTASVVCLLNNFYPREAKVQWKVDNALQSGNSQESVTEQDSKDSTYSLSSTLTLSKADYEKHKVYACEVTHQGLSSPVTKSFNRGEC
notes: as for B15
B20: GpH7-B3 variant T335_07I/GpL16-k0 (antibody, human IgG1, kappa)
heavy: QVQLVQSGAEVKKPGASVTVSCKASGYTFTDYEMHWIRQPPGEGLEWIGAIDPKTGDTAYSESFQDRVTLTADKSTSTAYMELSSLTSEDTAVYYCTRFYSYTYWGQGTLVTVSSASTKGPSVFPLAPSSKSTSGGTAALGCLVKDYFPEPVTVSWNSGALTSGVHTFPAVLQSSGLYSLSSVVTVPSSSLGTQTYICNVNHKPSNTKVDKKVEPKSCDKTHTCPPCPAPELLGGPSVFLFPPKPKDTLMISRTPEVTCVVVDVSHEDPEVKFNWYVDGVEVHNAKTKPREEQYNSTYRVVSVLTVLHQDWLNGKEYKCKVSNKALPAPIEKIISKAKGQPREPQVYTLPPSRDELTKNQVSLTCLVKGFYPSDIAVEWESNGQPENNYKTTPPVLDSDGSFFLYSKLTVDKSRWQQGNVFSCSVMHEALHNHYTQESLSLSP
light: DIVMTQSPLSLPVTPGEPASISCQASESLVHSNRNTYLHWYLQKPGQSPQLLIYKVSNRFSGVPDRFSGSGSGTDFTLKISRVEAEDVGVYYCSQNTHVPPTFGQGTKVEIERTVAAPSVFIFPPSDEQLKSGTASVVCLLNNFYPREAKVQWKVDNALQSGNSQESVTEQDSKDSTYSLSSTLTLSKADYEKHKVYACEVTHQGLSSPVTKSFNRGEC
notes: as for B15
B21: GpH7-B3 variant T335_10E/GpL16-k0 (antibody, human IgG1, kappa)
heavy: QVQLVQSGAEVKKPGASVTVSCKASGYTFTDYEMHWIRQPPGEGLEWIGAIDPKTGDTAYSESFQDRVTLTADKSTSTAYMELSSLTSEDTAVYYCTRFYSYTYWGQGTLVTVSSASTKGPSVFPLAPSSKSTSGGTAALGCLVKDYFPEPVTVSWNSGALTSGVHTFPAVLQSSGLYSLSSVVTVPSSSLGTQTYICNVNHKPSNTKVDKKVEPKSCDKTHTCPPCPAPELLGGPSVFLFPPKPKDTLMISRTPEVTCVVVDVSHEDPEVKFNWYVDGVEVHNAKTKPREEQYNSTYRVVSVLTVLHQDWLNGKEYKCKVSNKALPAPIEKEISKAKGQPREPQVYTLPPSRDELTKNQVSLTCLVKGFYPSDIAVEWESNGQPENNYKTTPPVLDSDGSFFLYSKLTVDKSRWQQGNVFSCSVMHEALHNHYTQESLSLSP
light: DIVMTQSPLSLPVTPGEPASISCQASESLVHSNRNTYLHWYLQKPGQSPQLLIYKVSNRFSGVPDRFSGSGSGTDFTLKISRVEAEDVGVYYCSQNTHVPPTFGQGTKVEIERTVAAPSVFIFPPSDEQLKSGTASVVCLLNNFYPREAKVQWKVDNALQSGNSQESVTEQDSKDSTYSLSSTLTLSKADYEKHKVYACEVTHQGLSSPVTKSFNRGEC
notes: as for B15

In the first experiment the target is T1, FcγRIIIa extracellular domain with C-terminal His tag (human, UniProt P08637 17-208).
T1 construct: extracellular domain; also called FcgRIIIa; 3a
T1 sequence (P08637 17-208): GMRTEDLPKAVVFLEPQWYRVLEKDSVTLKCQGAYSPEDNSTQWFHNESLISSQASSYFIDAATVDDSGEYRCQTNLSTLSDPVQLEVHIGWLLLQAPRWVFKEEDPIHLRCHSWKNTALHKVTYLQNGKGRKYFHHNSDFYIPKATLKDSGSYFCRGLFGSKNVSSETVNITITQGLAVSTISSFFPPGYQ
As to the kind of experiment: SPR, relative to GpH7-A5/GpH7-B3/GpL16-k0.
B1: the He/Con_3a is 121 % of control (=100). Still for that read-out and setting: the value for B2 was 124 % of control (=100). Same read-out and setting: with B3 the figure was 122 % of control (=100); with B4, 104 % of control (=100); with B5, 147 % of control (=100). On the same count and under the same terms, with B6 the figure was 207 % of control (=100); with B7, 104 % of control (=100). On to B8, for which the He/Con_3a was 120 % of control (=100). Consider B9, for which the He/Con_3a was 233 % of control (=100).

For B10, the He/Con_3a is 197 % of control (=100).

Take B11: the He/Con_3a is 186 % of control (=100). On the same count and under the same terms, the value for B12 was 111 % of control (=100); that for B13 was 112 % of control (=100); that for B14 was 103 % of control (=100).

The target in another experiment is T1, FcγRIIIa extracellular domain with …. Kind of experiment: SPR, relative to GpH7-B3/GpL16-k0.
In the case of B15, the Ho/Con_3a was 160 % of control (=100). Still for that read-out and setting: with B16 the figure was 106 % of control (=100). For the molecule B17, the Ho/Con_3a is 107 % of control (=100). As to B18, the Ho/Con_3a is 102 % of control (=100). The same measure, in the same setting: the value for B19 was 100 % of control (=100). The same measure, in the same setting: the value for B20 was 107 % of control (=100); that for B21 was 102 % of control (=100).
